Values belong to the substance of their own block, whether it stands above or below them.
What was measured:
[1] = target: p40 without a fusion partner (human) (UniProt P29460); experiment: cell-based or functional assay
[2] = target: p40-Fab fusion protein (human) (UniProt P29460); experiment: cell-based or functional assay
[3] = target: p40-IgG (anti-uPAR M37 IgG) (human) (UniProt P29460); experiment: cell-based or functional assay
[4] = target: p35-MSA fusion protein (human; mouse) (UniProt P29459); experiment: BLI (Octet), biotinylated p35-MSA against p40-fab, 0 hr at 37 C
Sequence of p35-MSA fusion protein (human; mouse) (P29459 23-219): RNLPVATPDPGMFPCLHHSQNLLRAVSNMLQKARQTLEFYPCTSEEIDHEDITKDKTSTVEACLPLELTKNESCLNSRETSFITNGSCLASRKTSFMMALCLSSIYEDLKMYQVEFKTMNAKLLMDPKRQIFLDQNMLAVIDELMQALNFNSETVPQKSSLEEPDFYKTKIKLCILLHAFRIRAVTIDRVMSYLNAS

[5] = target: p35-MSA fusion protein (human; mouse) (UniProt P29459); experiment: BLI (Octet), biotinylated p35-MSA against p40-fab, 4 hr at 37 C
[6] = target: p35-MSA fusion protein (human; mouse) (UniProt P29459); experiment: BLI (Octet), biotinylated p35-MSA against p40-fab, 24 hr at 37 C
[7] = target: p35-MSA fusion protein (human; mouse) (UniProt P29459); experiment: BLI (Octet), biotinylated p35-MSA against p40-fab, 47 hr at 37 C
[8] = target: GM-CSF receptor on U937 cells (human); experiment: cell-based or functional assay
[9] = target: IL-12 receptor on HEK-BLUE IL-12 cells; experiment: cell-based or functional assay

Sequence of p40-Fab fusion protein (human) (P29460 23-328): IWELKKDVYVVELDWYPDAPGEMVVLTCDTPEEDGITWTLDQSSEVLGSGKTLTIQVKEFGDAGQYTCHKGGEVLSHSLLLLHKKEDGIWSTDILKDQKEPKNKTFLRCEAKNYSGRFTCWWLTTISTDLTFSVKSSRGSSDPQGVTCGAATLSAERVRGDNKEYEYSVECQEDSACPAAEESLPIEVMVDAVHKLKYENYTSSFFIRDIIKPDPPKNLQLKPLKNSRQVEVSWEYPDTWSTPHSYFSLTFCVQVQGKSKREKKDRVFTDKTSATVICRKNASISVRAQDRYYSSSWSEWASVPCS
Sequence of p40-IgG (anti-uPAR M37 IgG) (human) (P29460 23-328): as above
Sequence of p40-Fab fusion protein (P29460 23-328): as above

- EC50, % pStat4 formation in CD4+ T cells [1]: 0.842 nM
- EC50, % pStat4 formation in CD8+ T cells [1]: 1.06 nM
- EC50, IFN gamma production by T cells [1]: 0.657 nM
- EC50 fold change relative to scIL-12, IFN gamma production [1]: 128 fold
- EC50 fold change relative to scIL-12, pStat4 in CD4+ T cells [1]: 16.4 fold
- EC50 fold change relative to scIL-12, pStat4 in CD8+ T cells [1]: 14.2 fold
- EC50, % pStat4 formation in CD4+ T cells [2]: 0.708 nM
- EC50, % pStat4 formation in CD8+ T cells [2]: 0.912 nM
- EC50, IFN gamma production by T cells [2]: 0.559 nM
- EC50 fold change relative to scIL-12, IFN gamma production [2]: 109 fold
- EC50 fold change relative to scIL-12, pStat4 in CD4+ T cells [2]: 13.8 fold
- EC50 fold change relative to scIL-12, pStat4 in CD8+ T cells [2]: 12.2 fold
- EC50, % pStat4 formation in CD4+ T cells [3]: 0.173 nM
- EC50, % pStat4 formation in CD8+ T cells [3]: 0.571 nM
- EC50, IFN gamma production by T cells [3]: 0.403 nM
- EC50 fold change relative to scIL-12, IFN gamma production [3]: 78.2 fold
- EC50 fold change relative to scIL-12, pStat4 in CD4+ T cells [3]: 3.37 fold
- EC50 fold change relative to scIL-12, pStat4 in CD8+ T cells [3]: 7.66 fold
Substance: p35-MSA fusion protein (from UniProt P29459 23-219)

- Kd [4]: 7.82 nM
- koff [4]: 0.000462 s⁻¹
- kon [4]: 59100 M⁻¹ s⁻¹
- Kd [5]: 7.54 nM
- koff [5]: 0.000385 s⁻¹
- kon [5]: 51100 M⁻¹ s⁻¹
- Kd [6]: 11.1 nM
- koff [6]: 0.000422 s⁻¹
- kon [6]: 38100 M⁻¹ s⁻¹
- Kd [7]: 10.5 nM
- koff [7]: 0.000376 s⁻¹
- kon [7]: 35800 M⁻¹ s⁻¹
Substance: p40-Fab fusion protein (from UniProt P29460 23-328)

- pSTAT5 EC50, U937 cells, no competitor [8]: 18.6 pM
Substance: recombinant human GM-CSF (R&D Systems, cat # 215-GM-050/CF) (from UniProt P04141 18-144) (ligand)

- potency, SEAP reporter in HEK-BLUE IL-12 cells [9]: 0.018 nM
Substance: wild-type human IL-12 (R&D Systems, Cat. No. 219-IL-005/CF) (from UniProt P29459 23-219; P29460 23-328) (ligand)
